The values that follow come from US20080267976A1.

As a reminder, the IC50 is the concentration that inhibits the measured activity by half. Low readings indicate greater potency, high ones weaker potency.

The target in one test is V158 FcγRIIIa (UniProt P08637). In words: competition AlphaScreen. A general note: In Alpha technology, singlet oxygen from a donor bead excites a nearby acceptor bead.
V158 FcγRIIIa, sequence (P08637 17-208 F176V): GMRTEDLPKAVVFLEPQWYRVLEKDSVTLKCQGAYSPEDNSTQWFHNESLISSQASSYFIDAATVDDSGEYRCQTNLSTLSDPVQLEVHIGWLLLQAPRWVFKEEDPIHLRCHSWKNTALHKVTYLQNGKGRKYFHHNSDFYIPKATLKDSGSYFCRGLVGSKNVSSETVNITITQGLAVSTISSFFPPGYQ
In the case of S239D/I332E H3.69_L3.71 AC10 IgG1, the IC50 is 5.1 nM.
Turning to “S239D/I332E/A330Y H3.69_V2_L3.71 AC10 IgG(1/2) ELLGG”, the IC50 was found to be 52 nM.
Still for that read-out and setting: as for “S239D/I332E/A330Y/K326E H3.69_V2_L3.71 AC10 IgG(1/2) ELLGG”, the figure is 4 nM; as for “S239D/I332E/H268E H3.69_V2_L3.71 AC10 IgG(1/2) ELLGG”, 0.882 nM; as for “S239D/I332E/K246H/S324I H3.69_V2_L3.71 AC10 IgG(1/2) ELLGG”, 10.7 nM.
Still for that read-out and setting: the figure for “S239D/I332E/K246H/T260H H3.69_V2_L3.71 AC10 IgG(1/2) ELLGG” is 5.79 nM; for “S239D/I332E/K326T H3.69_V2_L3.71 AC10 IgG(1/2) ELLGG” it is 5.26 nM; for “S239D/I332E/S298A H3.69_V2_L3.71 AC10 IgG(1/2) ELLGG” it is 1.28 nM.
The same measure, in the same setting: as for “S239D/I332E/S324G H3.69_V2_L3.71 AC10 IgG(1/2) ELLGG”, the figure is 8.93 nM.

In a further test the target is V158 FcγRIIIa (UniProt P08637). In words: competition AlphaScreen; second row.
The substance S239D/I332E H3.69_L3.71 AC10 IgG1 returned a concentration for half-maximal inhibition (IC50) of 0.531 nM.
